Measurements reported in patent US20070254850A1.

Target: Fas on primary mouse hepatocytes (mouse) (UniProt P25446)
Assay: cell-based or functional assay

Sequence of UniProt P25446 (P25446 22-327): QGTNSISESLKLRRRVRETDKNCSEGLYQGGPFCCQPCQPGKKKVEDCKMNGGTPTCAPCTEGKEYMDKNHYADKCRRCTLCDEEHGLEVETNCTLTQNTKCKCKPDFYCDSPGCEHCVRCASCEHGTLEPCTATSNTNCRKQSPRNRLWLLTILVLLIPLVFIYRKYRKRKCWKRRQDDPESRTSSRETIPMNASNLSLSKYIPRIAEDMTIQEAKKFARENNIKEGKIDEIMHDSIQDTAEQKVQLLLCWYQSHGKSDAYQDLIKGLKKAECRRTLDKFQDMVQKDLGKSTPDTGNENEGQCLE

Question: How did the TUNEL-stained cells, hepatocytes from Fas (sequence1)-siRNA treated mice (Fas expression silenced), Jo2 500 ng/mL for 24 hours turn out when agonistic anti-Fas antibody (Jo2) was run?
Answer: 7.9%

Question: And the apoptotic cells by FITC-TUNEL staining, hepatocytes from untreated or mock-treated mice, Jo2 500 ng/mL for 24 hours?
Answer: 87.8%
